Measured values reported in patent publication US20140100265.

Biological target: ribosomal protein S6, P62754

B1: hp70S6K (delC/T389E), constitutively active form of human p70S6K protein (protein)
chain: MAGVFDIDLDQPEDAGSEDELEEGGQLNESMDHGGVGPYELGMEHCEKFEISETSVNRGPEKIRPECFELLRVLGKGGYGKVFQVRKVTGANTGKIFAMKVLKKAMIVRNAKDTAHTKAERNILEEVKHPFIVDLIYAFQTGGKLYLILEYLSGGELFMQLEREGIFMEDTACFYLAEISMALGHLHQKGIIYRDLKPENIMLNHQGHVKLTDFGLCKESIHDGTVTHTFCGTIEYMAPEILMRSGHNRAVDWWSLGALMYDMLTGAPPFTGENRKKTIDKILKCKLNLPPYLTQEARDLLKKLLKRNAASRLGAGPGDAGEVQAHPFFRHINWEELLARKVEPPFKPLLQSEEDVSQFDSKFTRQTPVDSPDDSTLSESANQVFLGFEYVAPSVLES
Q: For B1, which “phosphorylation of ribosomal protein S6 (immunoperoxidase staining of SN sections after AAV transduction)” value is on record?
A: Its value is “hp70S6K(CA) induces a detectable increase in phosphorylation of ribosomal protein S6”.
